Measured values reported in the supplement of paper PMC10567573.

B1: PLD5 (parent)
chain: KRTYWPDLDAKIREALVLRSVRVR
B2: EFHC1 (parent)
chain: NIYYYLEDDSMSVIEPVVENSGIL

Variants of: B1
Assay: protein stability index of a GFP-peptide fusion (GPS, HEK-293T) (PSI 1-6); higher = more stable
Settings: c terminus: a fixed tail appended
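Further: lentivirally expressed fusions sorted by FACS into six bins by GFP to DsRed ratio, PSI derived from sequencing read proportions per bin multiplied by bin number.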

Protein stability index, by site and new letter:
E14: S 1.13, T 2.42, H 1.27, Q 1.88, P 2.13, A 1.09, G 2.75, K 1.68, C 1.46
S20: K 1.48, T 1.96, N 1.77, R 2, Q 2.04
R2: Q 2.31, E 2.14, F 2.92, N 2.14, M 1.77, K 2.56, P 2.7, V 2.43, W 1.32, H 1.54, T 2.63, Y 1.09
K11: M 1.04, R 1.47, H 1.29, A 1.42, Y 1.99, E 2.17, T 2.42, D 2.29, P 2.14
D7: F 1.58, M 2.84, T 2.39, V 1.23, P 3.44, L 1.82, Y 1.37, E 1.02, C 1.61, R 2.62, A 1.87, S 2.02
D9: N 1.59, H 2.57, G 2.88, E 2.54
R19: C 2.36, Q 2.53, K 1.45, T 2.53, S 1.8, E 1.69, Y 2.67, H 1.48, N 2.8
W5: Q 2.15, H 2.9, S 2.66, A 1.86, R 2.1, K 2.01, V 4.52, I 3.62, D 1.73, N 1.96, T 1.58, E 2.79, C 1.5
L18: M 1.51, N 2.45, W 2.04, R 2.12, V 1.6, T 1.71, E 2.93, I 1.64, H 2.16, G 1.91, K 2.64, S 1.88, Y 2.09, F 1.78
L16: Y 2.06, N 2.61, D 2.8, V 2.53, G 1.31, S 2.51, H 2.94, I 1.95, W 3.86, P 2.02
P6: G 1.82, H 1.96, A 2.54, D 1.28, W 3.99, Q 3.34, F 2.23, S 1.67, K 1.25, C 1.06
T3: I 1.46, E 1.28, W 1.12, Q 2.91, S 1.6, L 2.83, A 1.78
L8: D 2.83, Y 3.05, H 2.47, E 2.94, P 1.82, F 2, Q 1.88, M 2.72, T 2.24, N 1.73, R 3.06, W 1.85, A 2.18
K1: D 2.06, Y 1.05, R 1.92, G 2.53, N 2.21, C 1.46, H 2.25, P 1.79, E 2.58, L 1.6, S 1.84, T 1.93, F 2.55, M 1.79
R13: C 2.29, Y 1.65, V 2.31, G 1.89, S 1.43, A 1.3, K 1.9, P 1.79, H 2.6, M 1.54, Q 1.28, N 1.61
V17: R 1.32, N 5.34, M 2.18, L 1.91, I 1.11, E 1.6, Q 1.57, W 1.3, S 1.95, H 3.18, G 2.11, K 1.79, T 1.57
A15: E 2.26, Q 2.04, Y 2.11, P 1.67, T 1.72, V 1.04, K 1.9, N 1.51, W 1.62
V21: A 1.84, E 2.24
A10: H 3.11, T 2.33, P 2.36, I 2.54, V 1.93, F 1.52, L 2.05, Y 2.61
I12: H 2.19, C 2.29, M 2.38, E 2.76, A 2.01, K 2.41, T 2.7, F 1.93, V 2.3, Q 2.54, D 1.43, L 1.81, R 2.78, Y 1.29
Y4: P 1.9, D 2.75, K 1.48, H 2.25, S 1.67, V 3.54, F 1.41, Q 1.93, A 1.17, I 1.96, W 1.75, L 2.27, C 1.85, T 1.82, E 2.69, G 2.01

Variants of: B2
Assay: as above
Settings: c terminus: a fixed tail appended

Protein stability index, by site and new letter:
G22: D 2.44, S 1.7, V 2.43, N 2.25, C 1.62, T 1.42, H 1.71, K 1.78, I 1.81, A 2.19, M 1.46, E 2.71, P 2.14, Y 1.5, R 1.55, Q 1.82, L 1.51
V18: K 2.33, N 2.6, Y 1.67, S 2.67, E 2.69, M 1.66, P 2.38, G 3.04, I 2.23, C 1.82, D 2.99, R 1.92, F 1.85, T 2.23, Q 2.38, H 2.11, W 1.13, L 2.16
I23: R 1.99, K 2.53, G 2.14, Q 2.78, V 1.8, N 2.71, P 2.42, W 2.47, T 3.04, A 2.82, E 3.12, C 2.12, Y 2.51, D 2.81, H 2.43, F 1.2
N20: D 1.7, K 2.06, E 2.46, W 2.37, H 1.79, F 1.48, V 2.71, C 1.93, A 1.69, R 1.33, P 2.95, Q 1.67, T 1.71, L 3.52, S 2.13, G 2.77
S21: G 2.23, Q 2.6, D 2.4, P 2.4, K 2.12, E 2.31, H 2.09, C 2.57, R 1.74, T 1.82, V 1.6, N 2.33, I 1.48, A 1.76, Y 1.39, L 2.03, M 1.78, F 1.45
L24: I 3.15, C 2.02, G 2.47, F 2.12, H 2.31, S 2.58, Y 2.31, V 2.21, W 1.4, D 2.48, A 2.08, N 2.48, Q 2.36, M 2.02, R 2.46, P 2.41
E19: Q 2.16, I 1.77, Y 2.53, R 1.67, H 2.01, G 1.74, K 2.23, V 2, P 2.34, N 1.69, L 1.42, C 1.39, S 1.35, F 1.89, T 1.66, M 1.86, D 2.01, A 1.59
